According to patent US20190359666A1 (ACADEMIA SINICA, published 2019):

T1: nrgbx (UniProt Q02297-6 2-246, limits assumed)
T1 sequence (looked up): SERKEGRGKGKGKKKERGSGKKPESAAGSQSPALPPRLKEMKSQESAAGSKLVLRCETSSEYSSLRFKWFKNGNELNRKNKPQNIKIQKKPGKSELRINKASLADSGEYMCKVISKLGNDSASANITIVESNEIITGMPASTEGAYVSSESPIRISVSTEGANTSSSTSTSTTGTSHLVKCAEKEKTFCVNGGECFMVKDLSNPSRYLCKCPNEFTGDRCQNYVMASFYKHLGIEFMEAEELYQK

T2: VEGF-B (UniProt P49765-2 22-188)
T2 sequence (looked up): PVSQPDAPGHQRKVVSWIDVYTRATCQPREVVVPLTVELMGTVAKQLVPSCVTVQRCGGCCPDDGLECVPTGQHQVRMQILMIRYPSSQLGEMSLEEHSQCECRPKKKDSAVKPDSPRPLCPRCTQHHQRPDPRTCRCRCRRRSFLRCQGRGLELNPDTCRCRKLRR

T3: PIGF (UniProt P49763-2 21-149)
T3 construct: also called placental growth factor
T3 sequence (looked up): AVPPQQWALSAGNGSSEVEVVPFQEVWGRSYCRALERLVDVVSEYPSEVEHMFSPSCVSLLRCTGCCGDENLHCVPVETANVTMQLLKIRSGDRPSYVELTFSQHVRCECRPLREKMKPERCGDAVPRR

B1: IGFBP3-Fc-VEGF-1 (Fc fusion)
chain: GASSAGLGPVVRCEPCDARALAQCAPPPAVCAELVREPGCGCCLTCALSEGQPCGIYTERCGSGLRCQPSPDEARPLQALLDGRGLCVNASAVSKGHAKDSQRYKVDYESQSTDTQNFSSESKRETEYGPCRREMEDTLNHLKFLNVLSPRGVHIPNCDKKGFYKKKQCRPSKGRKRGFCWCVDKYGQPLPGYTTKGKEDVHCYSMQSKAPPAPGNASESEEDRSAGIYIFISDTGRPFVEMYSEIPEIIHMTEGRELVIPCRVTSPNITVTLKKFPLDTLIPDGKRIIWDSRKGFIISNATYKEIGLLTCEATVNGHLYKTNYLTHRQGYRIYDVVLSPSHGIELSVGEKLVLNCTARTELNVGIDFNWEYPSSKHQHKKLVNRDLKTQSGSEMKKFLSTLTIDGVTRSDQGLYTCAASSGLMTKKNSTFVRVHEKVECPPCPAPPVAGPSVFLFPPKPKDQLMISRTPEVTCVVVDVSHEDPEVKFNWYVDGVEVHNAKTKPREEQYNSTYRVVSVLTVLHQDWLNGKEYKCKVSNKGLPSSIEKTISKAKGQPREPQVYTLPPSREEMTKNQVSLTCLVKGFYPSDIAVEWESNGQPENNYKTTPPVLDSDGSFFLYSKLTVDKSRWQQGNVFSCSVMHEGLHNHYTQKSLSLSPGK
notes: IGFBP3 with linker deletion 1 - gly 3 linker - v1v2 (VEGFR1 domain 2, VEGFR2 domain 3) - Fc; dimeric; also called chimera A; chimeraA
B2: IGFBP3-Fc-1 (Fc fusion)
chain: GASSAGLGPVVRCEPCDARALAQCAPPPAVCAELVREPGCGCCLTCALSEGQPCGIYTERCGSGLRCQPSPDEARPLQALLDGRGLCVNASAVSKGHAKDSQRYKVDYESQSTDTQNFSSESKRETEYGPCRREMEDTLNHLKFLNVLSPRGVHIPNCDKKGFYKKKQCRPSKGRKRGFCWCVDKYGQPLPGYTTKGKEDVHCYSMQSKVECPPCPAPPVAGPSVFLFPPKPKDQLMISRTPEVTCVVVDVSHEDPEVKFNWYVDGVEVHNAKTKPREEQYNSTYRVVSVLTVLHQDWLNGKEYKCKVSNKGLPSSIEKTISKAKGQPREPQVYTLPPSREEMTKNQVSLTCLVKGFYPSDIAVEWESNGQPENNYKTTPPVLDSDGSFFLYSKLTVDKSRWQQGNVFSCSVMHEGLHNHYTQKSLSLSPGK
notes: IGFBP3 with IGFBP3 linker deletion 1 (55 amino acids deleted from the linker region), fused to Fc; dimeric; also called h3t33fc; his3t33fc

What was measured:
IGF-1 [1] = target: T4, IGF-1 (UniProt P05019 49-118); experiment: biotinylated IGF-1 ELISA on Fc-captured chimera, 4 C PBS control (the reference); experiment 3-192
T4 construct: Biotinylated IGF-1 is written as the same molecule; also called biotinylated IGF-1; IGF-1-bio
T4 sequence (P05019 49-118 limits assumed): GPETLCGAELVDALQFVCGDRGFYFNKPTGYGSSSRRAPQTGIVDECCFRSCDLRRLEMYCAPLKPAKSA
Method: (§1) Plates were coated with goat anti-human Fc antibody, blocked and then incubated with chimera as in the Fc ELISA. Biotinylated IGF-1 (GroPep) or VEGF-Biotin (R&D Systems VEGF biotinylated with sulfo-NHS-LC-biotin as per instructions (Pierce) was added for 2 hours followed by streptavidin-HRP (Jackson Immunoresearch) for 30 minutes. Chromogenic development with tetramethyl benzidine was performed as described above.
(§2) To test the stability of the present chimeras, some purified chimeras (see, Table 4) were incubated with PBS or a conditioned medium from the MCF-7 cell line overnight at 37° C. and PBS overnight at 4° C. The IGF-1 binding and VEGF binding were measured using the biotinylated IGF-1 and VEGF.

VEGF [2] = target: T5, VEGF (UniProt P15692-4 27-191); experiment: Biacore SPR, chimera immobilised; footnote: the kd is very low and difficult to measure
T5 sequence (P15692 other isoform, or with tags, fused parts or gaps limits assumed): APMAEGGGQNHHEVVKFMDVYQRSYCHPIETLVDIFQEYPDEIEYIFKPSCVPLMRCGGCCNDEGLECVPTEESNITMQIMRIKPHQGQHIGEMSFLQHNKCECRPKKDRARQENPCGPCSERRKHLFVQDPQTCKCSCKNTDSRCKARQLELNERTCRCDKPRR
Method: (§3) Biacore binding was performed at David Myszka's laboratory at the University of Utah or at the Genomic Research Center at Academia Sinica. Surfaces of binding protein chimera were made via chemical immobilization on a CM4 chip using standard amine coupling chemistry. […] Excess surface carboxyl activated sites on all four flow cells was blocked using the doubly positively charged species ethylenediamine. Binding experiments (but not immobilizations) in HBS-P (10 mM HEPES pH 7.4, 150 mM NaCl, 0.05% P20), The HBS-P was supplemented with BSA at 0.2 mg/mL, or HBS-P was supplemented with 500 mM NaCl (650 mM NaCl, final concentration). Analytes were also reconstituted in the corresponding buffer. All experiments were performed at 25° C. 1/150 dilutions of phosphoric acid were used to regenerate IGFBP3-Fc surfaces and a sequence of 3 M MgCl₂ followed by 5 M GuCl was used to regenerate surfaces immobilized with growth factor. Dissociation constants reported below used immobilized binding protein unless noted. Differences between binding constants may be expected between growth factor immobilization and chimera immobilization.
(§4) We selected his3t33Fc and chimera A for further analysis and examined their growth factor binding by Biacore and ELISA competition assays.

IGF-1 [3] = target: T4, IGF-1; experiment: biotinylated IGF-1 ELISA on Fc-captured chimera, after overnight in PBS at 37 C, against the 4 C PBS control; experiment 3-192
Method: as §1, §2

HGF = target: T6, HGF (UniProt P14210 32-728); experiment: Biacore SPR, growth factor immobilised
T6 construct: also called hepatocyte growth factor
T6 sequence (P14210 32-728 limits assumed): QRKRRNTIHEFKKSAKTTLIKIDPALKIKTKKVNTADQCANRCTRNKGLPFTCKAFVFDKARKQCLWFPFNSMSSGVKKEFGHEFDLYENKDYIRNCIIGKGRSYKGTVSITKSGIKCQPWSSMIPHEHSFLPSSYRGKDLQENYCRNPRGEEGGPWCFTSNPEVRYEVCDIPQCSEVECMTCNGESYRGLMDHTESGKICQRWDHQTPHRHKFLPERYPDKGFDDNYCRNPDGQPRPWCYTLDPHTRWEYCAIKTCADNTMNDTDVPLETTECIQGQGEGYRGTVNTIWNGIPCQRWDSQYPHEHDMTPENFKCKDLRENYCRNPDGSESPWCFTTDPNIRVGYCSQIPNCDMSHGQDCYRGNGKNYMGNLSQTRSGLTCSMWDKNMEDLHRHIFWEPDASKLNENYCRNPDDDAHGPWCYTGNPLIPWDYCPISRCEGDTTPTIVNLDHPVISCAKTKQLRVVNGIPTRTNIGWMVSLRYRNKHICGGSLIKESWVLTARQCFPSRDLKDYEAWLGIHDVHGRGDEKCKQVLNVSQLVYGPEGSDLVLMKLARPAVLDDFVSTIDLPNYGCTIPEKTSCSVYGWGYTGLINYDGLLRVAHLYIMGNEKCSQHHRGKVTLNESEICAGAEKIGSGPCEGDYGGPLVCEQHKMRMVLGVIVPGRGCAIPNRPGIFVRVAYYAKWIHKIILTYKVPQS
Method: as §3, §4

bFGF [4] = target: T7, bFGF (UniProt P09038 143-288, limits assumed); experiment: Biacore SPR, growth factor immobilised
T7 construct: also called basic fibroblast growth factor
T7 sequence (P09038 143-288 limits assumed): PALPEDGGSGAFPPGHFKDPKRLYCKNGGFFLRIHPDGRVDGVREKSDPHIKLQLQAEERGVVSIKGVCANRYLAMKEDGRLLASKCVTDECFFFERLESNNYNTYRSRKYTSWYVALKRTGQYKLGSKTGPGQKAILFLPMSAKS
Method: as §3, §4

IGF-1 [5] = target: T4, IGF-1; experiment: biotinylated IGF-1 ELISA on Fc-captured chimera, after overnight in MCF-7 conditioned medium at 37 C, against the 4 C PBS control; experiment 3-192
Method: as §1, §2

IGF-1 [6] = target: T4, IGF-1; experiment: SPR, in the presence of 3 nM VEGF; presence of 3 nM VEGF
Method: as §3
(§5) To further examine the nature of the VEGF and IGF binding to chimera A, simultaneous binding was examined using the surface plasmon resonance.

nrgbx [7] = target: T1, nrgbx; experiment: cell-based or functional assay
nrgbx [8] = target: T1, nrgbx; experiment: Biacore SPR, chimera immobilised
Method: as §3, §4

TGF-α = TGF-α (UniProt P01135 40-89); experiment: Biacore SPR, chimera immobilised
TGF-α, sequence (P01135 40-89 limits assumed): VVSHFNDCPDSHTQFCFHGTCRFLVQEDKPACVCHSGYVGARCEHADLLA
Method: as §3, §4

IGF-1 [9] = target: T4, IGF-1; experiment: Biacore SPR, chimera immobilised
Method: as §3, §4

IGF-2 = IGF-2 (UniProt P01344 25-91); experiment: Biacore SPR, chimera immobilised
IGF-2, sequence (P01344 25-91 limits assumed): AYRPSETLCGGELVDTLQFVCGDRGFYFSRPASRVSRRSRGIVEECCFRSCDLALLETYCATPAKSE
Method: as §3, §4

VEGF-B = target: T2, VEGF-B; experiment: Biacore SPR, chimera immobilised
Method: as §3, §4

mIGF-2 = mIGF-2 (UniProt P09535 25-91); experiment: Biacore SPR, chimera immobilised
mIGF-2, sequence (P09535 25-91 limits assumed): as the sequence (P01344 25-91 limits assumed) above, with R3G, S5G, G22S, A32S, V35A, S36N counted along it
Method: as §3, §4

PIGF = target: T3, PIGF; experiment: Biacore SPR, chimera immobilised
Method: as §3, §4

mIGF-1 = mIGF-1 (UniProt P05017 49-118); experiment: Biacore SPR, chimera immobilised
mIGF-1, sequence (P05017 49-118 limits assumed): as the sequence (P05019 49-118 limits assumed) above, with D20P, S35I, A67T, S69A counted along it
Method: as §3, §4

IGF-1 [10] = target: T4, IGF-1; experiment: SPR, without VEGF; absence of VEGF
Method: as §3, §5

IGF-1 [11] = target: T4, IGF-1; experiment: biotinylated IGF-1 ELISA on Fc-captured chimera, 4 C PBS control (the reference); experiment 4-81
Method: as §1, §2

IGF-1 [12] = target: T4, IGF-1; experiment: Biacore SPR; experiment 4-79
Method: as §3

IGF-1 [13] = target: T4, IGF-1; experiment: biotinylated IGF-1 ELISA on Fc-captured chimera, after overnight in MCF-7 conditioned medium at 37 C, against the 4 C PBS control; experiment 4-81
Method: as §1, §2

bFGF [14] = target: T7, bFGF; experiment: Biacore SPR, immobilised bFGF; experiment 4-79
Method: as §3

bFGF [15] = target: T7, bFGF; experiment: Biacore SPR, growth factor immobilised; growth factor immobilised
VEGF [16] = target: T5, VEGF; experiment: Biacore SPR, chimera immobilised
Method: as §3, §4

IGF-1 [17] = target: T4, IGF-1; experiment: biotinylated IGF-1 ELISA on Fc-captured chimera, after overnight in PBS at 37 C, against the 4 C PBS control; experiment 4-81
Method: as §1, §2

Binder	IGF-1 binding remaining over controls (IGF-1 [1]) [%]	IGF-1 binding remaining over controls (IGF-1 [3]) [%]	Kd (HGF) [nM]	IGF-1 binding remaining over controls (IGF-1 [5]) [%]	Kd (nrgbx [8]) [nM]	Kd (IGF-1 [9]) [nM]	Kd (IGF-2) [nM]	Kd (VEGF-B) [nM]	Kd (mIGF-2) [nM]	Kd (mIGF-1) [nM]	further results
B1	100	94	0.0218	77	4.88	0.0245	0.0389	0.5	0.0513	0.137	Kd (VEGF [2]): 0.0038 nM; Kd (bFGF [4]): 1.92 nM; Kd (IGF-1 [6]): 0.2 nM; IC50 in inhibiting neuregulin-induced proliferation (nrgbx [7]): 47 nM; Kd (TGF-α): 9250 nM; Kd (PIGF): 0.999 nM; Kd (IGF-1 [10]): 0.4 nM
B2	100	99	0.608	54	5.98	0.161	0.174	3	0.14	0.21	IGF-1 binding remaining over controls (IGF-1 [11]): 100%; Kd (IGF-1 [12]): 0.575 nM; IGF-1 binding remaining over controls (IGF-1 [13]): 51%; Kd (bFGF [14]): 13.3 nM; Kd (bFGF [15]): 13 nM; binding result (TGF-α): no binding; binding result (VEGF [16]): no binding; IGF-1 binding remaining over controls (IGF-1 [17]): 101%
